Measured values taken from US11629364B2, “Methods for synthesizing anticoagulant polysaccharides” (OPTIMVIA, LLC, priority 2019, dated 2023).
Substitutions are numbered along the chain they refer to.

B1: SEQ ID NO: 6: engineered aryl sulfate-dependent NST enzyme, mutant of N-sulfotransferase domain of human NDST (protein)
chain: MSEEKDPLWQDPCEDKRHKDIWSKEKTCDRFPKLLIIGPHGTGGHALYLFLGMHPDLSSNYPSSETGEEIQFFNGHNYHKGIDWYMEFFPIPSNTTSDFYFEKSANYFDSEVAPRRAAALLPKAKVLTILINPADRAYSWYQAQRAHDDPVALKYTFHEVITAGSDASSKLRALQNRCLVPGWYATHIERWLSAYHANQILVLDGKLLRTEPAKVMDMVQKFLGVTNTIDYHKTLAFDPKKGFWCQLLEGGKTKCGGKHLGRKYPEMDLDSRAFLKDYYRDHNIELSKLLYKMGQTLPTWLREDLQNTR
modifications: Amino acid sequence encoding for engineered arylsulfate-dependent N-sulfotransferase variant 3
notes: engineered aryl sulfate-dependent NST enzyme, mutant of N-sulfotransferase domain of human NDST
B2: SEQ ID NO: 59: full-length mutant of isoform 3 of the mouse 6OST enzyme, SEQ ID NO: 18 mutations (protein)
chain: MDERFNKWLLTPVLTLLFVVIMYQYVSPSCTSSCTNFGEQLRSGEARPPAVPSPARRAQAPLDEWERRPQLPPPPRGPPEGSRGVAAPEDEDEDPGDPEEEEEEEEEEPDPEAPENGSLPRFVPRFNFTLKDLTRFVDFNIKGRDVIVFLHIGHTGGTTFGRHLVKNIRLEQPCSCKAGQKKCTCHRPGKKETWLFSRFSTGWSCGTNADWTELTNCVPAIMEKKDCPRNHSHTRNFYYITMLRDPVSRYLGGWKHHQRGGTNKTSLHMCDGRSPTPDELPTCYPGDDWSGVSLREFMDCSYNLANNRQVRMLADLSLVGCYNLTFMNESERNTILLQSAKNNLKNMAFFGLTEFQRKTQFLFERTFNLKFISPFTQVNITRASNVDINDGARQHIEELNFLDMQLYEYAKDLFQQRYHHTKQLEHQRDRQKRREERRLQREHRAHRWPKEDRAMEGTVTEDYNSQVVRW
modifications: Amino acid sequence encoding for engineered arylsulfate-dependent 6-O-sulfotransferase variant 12
B3: SEQ ID NO: 60: full-length mutant of isoform 3 of the mouse 6OST enzyme, SEQ ID NO: 20 mutations (protein)
chain: B2 chain with N208R, G252S, G253H, H257T, T262A, S266G, A305G, V378F
modifications: Amino acid sequence encoding for engineered arylsulfate-dependent 6-O-sulfotransferase variant 13
B4: SEQ ID NO: 61: full-length mutant of isoform 3 of the mouse 6OST enzyme, SEQ ID NO: 22 mutations (protein)
chain: B2 chain with T207S, N208H, G252S, T262A, A305G, V378F
modifications: Amino acid sequence encoding for engineered arylsulfate-dependent 6-O-sulfotransferase variant 13
B5: SEQ ID NO: 10: engineered aryl sulfate-dependent NST enzyme, mutant of N-sulfotransferase domain of human NDST (protein)
chain: MSEEKDPLWQDPCEDKRHKDIWSKEKTCDRFPKLLIIGPHKTGVHALYLFLGMHPDLSSNYPSSETGNHIGFFGGHNYHKGIDWYMEFFPIPSNTTSDFYFEKSAWYFDSEVAPRRAAALLPKAKVLTILINPADRAYSWYQHQRAHDDPVALKYTFHEVITAGSDASSKLRALQNRCLVPGWYATHIERWLSAYHANQILVLDGKLLRTEPAKVMDMVQKFLGVTNTIDYHKTLAFDPKKGFWCQLLEGGKTKCLGKSVGRKYPEMDLDSRAFLKDYYRDHNIELSKLLYKMGQTLPTWLREDLQNTR
modifications: Amino acid sequence encoding for engineered arylsulfate-dependent N-sulfotransferase variant 5
notes: as for B1
B6: SEQ ID NO: 2: engineered aryl sulfate-dependent NST enzyme, mutant of N-sulfotransferase domain of human NDST (protein)
chain: MSEEKDPLWQDPCEDKRHKDIWSKEKTCDRFPKLLIIGPQKTGAWALYHFLGMHPDLSSNYPSSETHGSIQFFNGHNYHKGIDWYMEFFPIPSNTTSDFYFEKSANYFDSEVAPRRAAALLPKAKVLTILINPADRAYSWYQHQRAHDDPVALKYTFHEVITAGSDASSKLRALQNRCLVPGWYATHIERWLSAYHANQILVLDGKLLRTEPAKVMDMVQKFLGVTNTIDYHKTLAFDPKKGFWCQLLEGGKTKCLGKSHGRKYPEMDLDSRAFLKDYYRDHNIELSKLLYKMGQTLPTWLREDLQNTR
modifications: Amino acid sequence encoding for engineered arylsulfate-dependent N-sulfotransferase variant 1
notes: as for B1
B7: SEQ ID NO: 12: engineered aryl sulfate-dependent NST enzyme, mutant of N-sulfotransferase domain of human NDST (protein)
chain: B6 chain with Q40A, A46L, Y48H, G68S, K103T, L256A, G257H, S259G, H260L
modifications: Amino acid sequence encoding for engineered arylsulfate-dependent N-sulfotransferase variant 6
notes: as for B1
B8: SEQ ID NO: 4: engineered aryl sulfate-dependent NST enzyme, mutant of N-sulfotransferase domain of human NDST (protein)
chain: MSEEKDPLWQDPCEDKRHKDIWSKEKTCDRFPKLLIIGPSKTGAFLLTHFLGMHPDLSSNYPSSETGHSIQFFNGHNYHKGIDWYMEFFPIPSNTTSDFYFETSSNYFDSEVAPRRAAALLPKAKVLTILINPADRAYSWYQHQRAHDDPVALKYTFHEVITAGSDASSKLRALQNRCLVPGWYATHIERWLSAYHANQILVLDGKLLRTEPAKVMDMVQKFLGVTNTIDYHKTLAFDPKKGFWCQLLEGGKTKCHGKRWGRKYPEMDLDSRAFLKDYYRDHNIELSKLLYKMGQTLPTWLREDLQNTR
modifications: Amino acid sequence encoding for engineered arylsulfate-dependent N-sulfotransferase variant 2
notes: as for B1

Legend:
[1] = NST activity: N-sulfated products detected by SAX-HPLC after lyase digestion; format: biochemical; conditions: PNS or NCS as sulfo donor, N-deacetylated heparosan acceptor, 37° C. overnight
Description: A study was conducted in accordance with embodiments of the present disclosure to confirm NST activity of enzymes comprising the amino acid sequence of SEQ ID NO: 2, SEQ ID NO: 4, SEQ ID NO: 6, SEQ ID NO: 8, SEQ ID NO: 10, or SEQ ID NO: 12 by detecting the presence of N-sulfated polysaccharide products formed as a result of their sulfotransfer reaction, using mass spectrometry (MS). Each engineered enzyme was purified according to the procedure of Example 1. Sulfotransferase activity was monitored in 100 μL reactions containing 50 μM of enzyme. To each purified protein solution, 20 mg of an aryl sulfate compound (either PNS or NCS) was dissolved in 2 mL of reaction buffer (50 mM IVIES pH 7.0, 2 mM CaCl2)), added to the protein solution, and incubated at 37° C. for 10 min. 2.5 mL of 2 mg/mL solution of N-deacetylated heparosan was added to protein/donor solution and incubated overnight at 37° C. The N-deacetylated heparosan was synthesized according to the protocol described in Balagurunathan, K. et al (eds.) (2015), Glycosaminoglycans: Chemistry and Biology, Methods in Molecular Biology, vol. 1229, DOI 10.1007/978-1-4939-1714-3_2, ©Springer Science+Business Media, New York, pp. 11-19 (section 3.1). To purify the N-sulfated product, the incubated reaction mixture was centrifuged the following day at 5,000×g for 10 min. The filter was washed once with 2 mL water, and centrifuged again. The filtrate was added to a 1K MWCO Dialysis membrane, dialyzed for 2 days in Milli-Q water, with water changes at 1 h, 2 h, 8 h, 16 h, 32 h, and then lyophilized.
The lyophilized N-sulfated products from each reaction were subsequently digested with a mixture of three carbon-oxygen lyases comprising the amino acid sequences of SEQ ID NO: 30, SEQ ID NO: 31, and SEQ ID NO: 32, which catalyze the β-eliminative cleavage of heparosan-based polysaccharides. Such lyases are available from New England Biolabs, among other chemical and biological commercial entities. 1 μL of each lyase was incubated with 50 μg of the lyophilized sulfated polysaccharide product and the provided digestion buffer, and incubated over 24 hours according to the packaged instructions provided by New England Biolabs with each lyase. After digestion, the lyase enzymes were inactivated by heating to 100° C. for 5 minutes. Samples were centrifuged at 14,000 rpm for 30 minutes before introduction to a strong anion exchange, high performance liquid chromatography (SAX) analysis. SAX analysis was performed on a Dionex Ultimate 3000 LC system interface. Separation was carried out on a 4.6×250 mm Waters Spherisorb analytical column with 5.0 μm particle size at 45° C. Mobile phase solution A was 2.5 mM sodium phosphate, pH 3.5, while mobile phase solution B was 2.5 mM sodium phosphate, pH 3.5, and 1.2 M Sodium perchlorate. After each sample was loaded onto the column, mobile phase solutions were applied to the column at a ratio of 98% mobile phase solution A and 2% mobile phase solution B for five minutes at a flow rate of 1.4 mL/min. After five minutes, a linear gradient of increasing mobile phase solution B was applied until the ratio of mobile phase solution A to mobile phase solution B was 50:50.

[2] = 6OST activity: 6-O sulfated products detected by LCMS after lyase digestion; format: biochemical; conditions: procedures of Example 4; expected
Description: A study was conducted in accordance with embodiments of the present disclosure to confirm 6OST activity of enzymes comprising the amino acid sequence of SEQ ID NO: 18, SEQ ID NO: 20, or SEQ ID NO: 22 by detecting the presence of 6-O sulfated polysaccharide products as a result of their sulfotransfer reaction, using a similar LCMS procedure as in Example 3, except that the sulfo acceptor polysaccharide was prepared by chemically 6-O desulfating commercially available heparin (CAS code: 9041-08-1, available from Millipore Sigma), according to the procedure provided by Kariya, Y., et al., (2000) J. Biol. Chem. 275 (34):25949-25958).

Row | Molecule | NST sulfotransferase activity with aryl sulfate compounds [1] | 6OST activity: N,2,6-HS products by MS [2]
1 | B1 | activity with both aryl sulfate compounds | 
2 | B2 |  | confirm the presence of N,2,6-HS products
3 | B3 |  | confirm the presence of N,2,6-HS products
4 | B4 |  | confirm the presence of N,2,6-HS products
5 | B5 | activity with NCS only | 
6 | B6 | activity with NCS only | 
7 | B7 | activity with PNS only | 
8 | B8 | activity with NCS only | 
